# Test results from paper PMC10786919, “Design-rules for stapled peptides with in vivo activity and their application to Mdm2/X antagonists” (Nature Communications, 2024).
# Positions of bridges follow the written chain, without caps; N, C: chain ends. Non-standard residues stand in square brackets, D forms with d. Primed or numbered codes have the meaning given here. Trp(6-Cl) = N[C@@H](Cc1c[nH]c2cc(Cl)ccc12)C(=O)O; Lys(N3) = [N-]=[N+]=NCCCC[C@H](N)C(=O)O; R8 = C=CCCCCCC[C@@](C)(N)C(=O)O; S5 = C=CCCC[C@](C)(N)C(=O)O; Cba′ = not defined here; Aib = CC(C)(N)C(=O)O; βAla = NCCC(=O)O
# B1: AZIDE-ATSP-7041 (L1hR) (peptide)
# chain: KXXTFXEYWAQXXSAA
# modifications: homo-Arg (hR) at 1; N-terminal acetyl; Lys(N3) and beta-Ala before residue 1; R8 at 4 and S5 at 11 (olefin staple); Cba at 10; C-terminal amide
# B2: AZIDE-ATSP-7041 (T2hR) (peptide)
# chain: KXLXFXEYWAQXXSAA
# modifications: homo-Arg (hR) at 2; N-terminal acetyl; Lys(N3) and beta-Ala before residue 1; R8 at 4 and S5 at 11 (olefin staple); Cba at 10; C-terminal amide
# B3: AZIDE-ATSP-7041 (E5hR) (peptide)
# chain: KXLTFXXYWAQXXSAA
# modifications: homo-Arg (hR) at 5; N-terminal acetyl; Lys(N3) and beta-Ala before residue 1; R8 at 4 and S5 at 11 (olefin staple); Cba at 10; C-terminal amide
# B4: AZIDE-ATSP-7041 (Q9hR) (peptide)
# chain: KXLTFXEYWAXXXSAA
# modifications: homo-Arg (hR) at 9; N-terminal acetyl; Lys(N3) and beta-Ala before residue 1; R8 at 4 and S5 at 11 (olefin staple); Cba at 10; C-terminal amide
# B5: AZIDE-ATSP-7041 (S12hR) (peptide)
# chain: KXLTFXEYWAQXXXAA
# modifications: homo-Arg (hR) at 12; N-terminal acetyl; Lys(N3) and beta-Ala before residue 1; R8 at 4 and S5 at 11 (olefin staple); Cba at 10; C-terminal amide
# B6: AZIDE-ATSP-7041 (A13hR) (peptide)
# chain: KXLTFXEYWAQXXSXA
# modifications: homo-Arg (hR) at 13; N-terminal acetyl; Lys(N3) and beta-Ala before residue 1; R8 at 4 and S5 at 11 (olefin staple); Cba at 10; C-terminal amide
# B7: AZIDE-ATSP-7041 (A14hR) (peptide)
# chain: KXLTFXEYWAQXXSAX
# modifications: homo-Arg (hR) at 14; N-terminal acetyl; Lys(N3) and beta-Ala before residue 1; R8 at 4 and S5 at 11 (olefin staple); Cba at 10; C-terminal amide
# Target: T1, human Mdm2 1-125 (human)
# T1 construct: Mdm2, human, residues 1-125; the stretch after the TEV site ENLYFQG of the fusion protein; source: E. coli BL21 (DE3) Rosetta T1R, purified (Ni-NTA, gel filtration)
# T1 sequence (chain, as listed by the source): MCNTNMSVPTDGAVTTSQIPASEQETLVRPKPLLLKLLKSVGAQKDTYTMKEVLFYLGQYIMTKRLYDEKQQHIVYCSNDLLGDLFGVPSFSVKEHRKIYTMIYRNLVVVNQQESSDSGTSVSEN
# Assay: fluorescence polarisation; competitive fluorescence anisotropy: unlabelled peptide titrated against 250 nM Mdm2 (1-125) with 50 nM FAM-labelled 12/1 peptide (FAM-…-NH2); PBS pH 7.4, 0.001% Tween-20; apparent Kd, geometric means
# Conditions: both partners purified
row,Binder,Kd
1,Ac-[Lys(N3)][βAla]ATF[R8]EYWAQ[Cba′][S5]SAA-NH2 (staple 6-13; reading uncertain) [AZIDE-ATSP-7041 (L1A)],10.7 nM
2,Ac-[Lys(N3)][βAla]LKF[R8]EYWAQ[Cba′][S5]SAA-NH2 (staple 6-13; reading uncertain) [AZIDE-ATSP-7041 (T2K)],5.4 nM
3,Ac-[Lys(N3)][βAla]LTF[R8]KYWAQ[Cba′][S5]SAA-NH2 (staple 6-13; reading uncertain) [AZIDE-ATSP-7041 (E5K)],115 nM
4,Ac-[Lys(N3)][βAla]LTF[R8]EYWKQ[Cba′][S5]SAA-NH2 (staple 6-13; reading uncertain) [AZIDE-ATSP-7041 (A8K)],11.1 nM
5,Ac-[Lys(N3)][βAla]LTF[R8]EYWAK[Cba′][S5]SAA-NH2 (staple 6-13; reading uncertain) [AZIDE-ATSP-7041 (Q9K)],8.2 nM
6,Ac-[Lys(N3)][βAla]LTF[R8]EYWAQ[Cba′][S5]KAA-NH2 (staple 6-13; reading uncertain) [AZIDE-ATSP-7041 (S12K)],39.7 nM
7,Ac-[Lys(N3)][βAla]LAF[R8]EYWAQ[Cba′][S5]SAA-NH2 (staple 6-13; reading uncertain) [AZIDE-ATSP-7041 (T2A)],80.5 nM
8,Ac-[Lys(N3)][βAla]LTA[R8]EYWAQ[Cba′][S5]SAA-NH2 (staple 6-13; reading uncertain) [AZIDE-ATSP-7041 (F3A)],13200 nM
9,Ac-[Lys(N3)][βAla]KTF[R8]EYWAQ[Cba′][S5]SAA-NH2 (staple 6-13; reading uncertain) [AZIDE-ATSP-7041 (L1K)],3.8 nM

# Target: T1, human Mdm2 1-125
# Assay: as above
# Conditions: both partners purified
# Remark: another data set of the same source
row,Binder,Kd
1,Ac-[Lys(N3)][βAla]RTF[R8]EYWAQ[Cba′][S5]SAA-NH2 (staple 6-13; reading uncertain) [AZIDE-ATSP-7041 (L1R)],62.9 nM
2,Ac-[Lys(N3)][βAla]LRF[R8]EYWAQ[Cba′][S5]SAA-NH2 (staple 6-13; reading uncertain) [AZIDE-ATSP-7041 (T2R)],30.6 nM
3,Ac-[Lys(N3)][βAla]LTF[R8]RYWAQ[Cba′][S5]SAA-NH2 (staple 6-13; reading uncertain) [AZIDE-ATSP-7041 (E5R)],33 nM
4,Ac-[Lys(N3)][βAla]LTF[R8]EYWRQ[Cba′][S5]SAA-NH2 (staple 6-13; reading uncertain) [AZIDE-ATSP-7041 (A8R)],69.4 nM
5,Ac-[Lys(N3)][βAla]LTF[R8]EYWAR[Cba′][S5]SAA-NH2 (staple 6-13; reading uncertain) [AZIDE-ATSP-7041 (Q9R)],45.9 nM
6,Ac-[Lys(N3)][βAla]LTF[R8]EYWAQ[Cba′][S5]RAA-NH2 (staple 6-13; reading uncertain) [AZIDE-ATSP-7041 (S12R)],78.7 nM
7,B1,8.6 nM
8,B2,2.8 nM
9,B3,35.5 nM
10,B4,28.5 nM
11,B5,5 nM
12,B6,42.5 nM
13,B7,8.6 nM

# Target: T1, human Mdm2 1-125
# Assay: as above
# Conditions: both partners purified
# Remark: another data set of the same source
row,Binder,Kd
1,Ac-[Lys(N3)][βAla]LTF[R8]EYWAQ[Cba′][S5]S[Aib]A-NH2 (staple 6-13; reading uncertain) [AZIDE-ATSP-7041 (A13 TO AIB)],15.2 nM
2,Ac-[Lys(N3)][βAla]HTF[R8]EYWAQ[Cba′][S5]SAA-NH2 (staple 6-13; reading uncertain) [AZIDE-ATSP-7041 (L1H)],0.7 nM
3,Ac-[Lys(N3)][βAla]LHF[R8]EYWAQ[Cba′][S5]SAA-NH2 (staple 6-13; reading uncertain) [AZIDE-ATSP-7041 (T2H)],64.2 nM
4,Ac-[Lys(N3)][βAla]LTF[R8]HYWAQ[Cba′][S5]SAA-NH2 (staple 6-13; reading uncertain) [AZIDE-ATSP-7041 (E5H)],21.1 nM
5,Ac-[Lys(N3)][βAla]LTF[R8]EYWAH[Cba′][S5]SAA-NH2 (staple 6-13; reading uncertain) [AZIDE-ATSP-7041 (Q9H)],9.6 nM
6,Ac-[Lys(N3)][βAla]LTF[R8]EYWAQ[Cba′][S5]HAA-NH2 (staple 6-13; reading uncertain) [AZIDE-ATSP-7041 (S12H)],4.5 nM
7,Ac-[Lys(N3)][βAla]LEF[R8]EYWAQ[Cba′][S5]SAA-NH2 (staple 6-13; reading uncertain) [AZIDE-ATSP-7041 (T2E)],42.4 nM
8,Ac-[Lys(N3)][βAla]LTE[R8]EYWAQ[Cba′][S5]SAA-NH2 (staple 6-13; reading uncertain) [AZIDE-ATSP-7041 (F3E)],11200 nM
9,Ac-[Lys(N3)][βAla]LTF[R8]EEWAQ[Cba′][S5]SAA-NH2 (staple 6-13; reading uncertain) [AZIDE-ATSP-7041 (Y6E)],5.1 nM
10,Ac-[Lys(N3)][βAla]LTF[R8]EYEAQ[Cba′][S5]SAA-NH2 (staple 6-13; reading uncertain) [AZIDE-ATSP-7041 (W7E)],> 101000 nM
11,Ac-[Lys(N3)][βAla]LTF[R8]EYWEQ[Cba′][S5]SAA-NH2 (staple 6-13; reading uncertain) [AZIDE-ATSP-7041 (A8E)],3.2 nM
12,Ac-[Lys(N3)][βAla]LTF[R8]EYWAE[Cba′][S5]SAA-NH2 (staple 6-13; reading uncertain) [AZIDE-ATSP-7041 (Q9E)],34.6 nM
13,Ac-[Lys(N3)][βAla]LTF[R8]EYWAQE[S5]SAA-NH2 (staple 6-13) [AZIDE-ATSP-7041 (CBA10E)],312 nM

# Target: T1, human Mdm2 1-125
# Assay: as above
# Conditions: both partners purified
# Remark: another data set of the same source
row,Binder,Kd
1,"Ac-[Lys(N3)][βAla]VTF[R8]VYWVQ[Cba′][S5]SAA-NH2 (staple 6-13; reading uncertain) [AZIDE-ATSP-7041 (L1V, E5V, A8V)]",122 nM
2,"Ac-[Lys(N3)][βAla][dL]TF[R8]AY[Trp(6-Cl)]AA[Cba′][S5]S[dA]A-NH2 (staple 6-13; reading uncertain) [AZIDE-ATSP-7041 (L1 TO D-LEU, E5A, Q9A, W7 TO 6-CLTRP, A13 TO D-ALA)]",16.9 nM
